From the RNAGym collection of RNA variant scans (doi:10.7554/elife.90254)

B1: OR4K15 (parent)
chain: GUUAACGGUCAUAGGCCAUGGAAACUAGGAGCACCAUUUCGCUGCCAGUGAAGAAAUGAACAAAGAAAAUCUGGGCCAGGCAGGCAUCAAAAGAAAUAGUCUUGCGCUCAACCAGAAAGUCUGUAAUCAUUUUAAGGGUA

Variants of: B1
Assay: self-cleavage, relative activity (ratio to wild type); higher = more cleavage; in vitro, sequencing; the parent is a self-cleaving ribozyme

Row | Variant | self-cleavage
1 | A67G U102A | 1.3
2 | A64C C105U | 0.17
3 | A66G U124A | 1.19
4 | A66G U124C | 0.76
5 | A67G A91U | 0.99
6 | A68C U127G | 2.01
7 | A68U U102C | 2.04
8 | A68U U102A | 1.15
9 | A64G A89U | 2.18
10 | A66U G80A | 0.05
11 | G65U A111G | 0.06
12 | A68G G137A | 1.06
13 | A68G G137C | 1.12
14 | A67G U131C | 1.2
15 | A66G U127C | 1.11
16 | A68G U103C | 0.96
17 | A68G U103A | 0.5
18 | A64G U127C | 0.86
19 | A64C U102A | 0.71
20 | A64G U124C | 1.57
21 | A66G A78U | 0.5

Row | Variant | self-cleavage
22 | A64U U87G | 0.62
23 | A68G U87A | 0.96
24 | A63U U130C | 0.28
25 | A68G A135U | 0.68
26 | A66G A117G | 1.88
27 | A66G A117U | 0.6
28 | A64U A126G | 1.12
29 | A66U G106A | 0.02
30 | A67G G80A | 0.04
31 | A68U U100C | 2.4
32 | A64C A116G | 0.83
33 | A68G G84A | 2.58
34 | A66G A67U | 1.61
35 | A66G A67C | 1.66
36 | A66G A116G | 0.6
37 | A64G A116G | 0.61
38 | A67U U87C | 1.29
39 | A66U U130C | 1.34
40 | A68G A117G | 2
41 | A68G A117U | 0.82
42 | A66G U130C | 1.68

Row | Variant | self-cleavage
43 | A66G U130G | 0.2
44 | A63U U132C | 1.98
45 | A64G U72A | 0.35
46 | A64G U72C | 0.27
47 | A68G A78G | 0.3
48 | A68G A78U | 0.13
49 | A64C A140U | 1.86
50 | A66U A129U | 0.61
51 | A66U A129G | 0.39
52 | A67G G93U | 1.17
53 | G65A A91G | 0.96
54 | A66U U139A | 2.31
55 | A64G A78G | 0.28
56 | A64U U122A | 1.78
57 | A63U U122C | 1.57
58 | A68G A111U | 0.21
59 | A68C A92G | 1.88
60 | A68G A92G | 1.55
61 | A68G A92C | 1.7
62 | A67G A118U | 0.81
63 | A67G A118G | 0.95

Row | Variant | self-cleavage
64 | A64U C77U | 1.56
65 | A66U G75C | 0.18
66 | A64C G137A | 1.49
67 | A64U A129G | 1.34
68 | A68G C88U | 1.57
69 | A68G G136A | 1.44
70 | A68G G136C | 1.93
71 | A64G A126C | 1.16
72 | A68U U87G | 0.38
73 | A68U U87C | 1.78
74 | A68C A110G | 0.16
75 | A68U A89G | 1.53
76 | A67U A135G | 2.46
77 | A63U U127C | 1.25
78 | A68G A86C | 0.72
79 | A68G A91U | 1.44
80 | A68G A91C | 1.44
81 | A67G U97C | 1.74
82 | A66G G75A | 0.08
83 | A66G U120A | 1.73
84 | A66G U120G | 2.47
